From publication doi:10.1101/674218 (bioRxiv, 2019) come the findings set out here.

B1: recombinant murine cold-inducible RNA-binding protein, His-tagged (rmCIRP-his) (natural protein, mouse, UniProt P60824 1-172, looked up)
chain: MASDEGKLFVGGLSFDTNEQALEQVFSKYGQISEVVVVKDRETQRSRGFGFVTFENIDDAKDAMMAMNGKSVDGRQIRVDQAGKSSDNRSRGYRGGSAGGRGFFRGGRSRGRGFSRGGGDRGYGGGRFESRSGGYGGSRDYYASRSQGGSYGYRSSGGSYRDSYDSYATHNE

Experiment [1] deals with T1, recombinant mouse TREM-1-Fc Chimera (mouse, UniProt Q9JKE2 21-202).
T1 sequence (looked up): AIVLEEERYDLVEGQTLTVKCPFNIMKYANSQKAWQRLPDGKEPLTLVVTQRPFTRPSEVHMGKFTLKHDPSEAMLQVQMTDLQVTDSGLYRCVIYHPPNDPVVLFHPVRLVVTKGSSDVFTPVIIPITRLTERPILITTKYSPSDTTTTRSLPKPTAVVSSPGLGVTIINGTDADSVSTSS
Description: SPR. Background: In SPR one partner is held on a chip, and binding of the other changes the refractive index at the surface.

Experiment [2] addresses B1. Description: SPR.
In experiment [3] the target is T2, triggering receptor expressed on myeloid cells-1 (TREM-1) on RAW264.7 macrophages (mouse (endogenous in RAW264.7), UniProt Q9JKE2 21-230).
T2 sequence (looked up): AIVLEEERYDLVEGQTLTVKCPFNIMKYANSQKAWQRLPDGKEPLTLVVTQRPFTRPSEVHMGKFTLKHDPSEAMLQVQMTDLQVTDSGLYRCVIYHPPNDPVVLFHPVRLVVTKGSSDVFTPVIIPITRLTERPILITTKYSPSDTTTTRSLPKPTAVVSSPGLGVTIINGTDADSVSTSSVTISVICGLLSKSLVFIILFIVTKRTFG
Description: FRET or BRET. On the technique in general: BRET reads energy transfer from a luciferase to a nearby fluorophore.

In experiment [4] the target is T3, recombinant murine cold-inducible RNA-binding protein, His-tagged (rmCIRP-his) (mouse), P60824.
T3 chain: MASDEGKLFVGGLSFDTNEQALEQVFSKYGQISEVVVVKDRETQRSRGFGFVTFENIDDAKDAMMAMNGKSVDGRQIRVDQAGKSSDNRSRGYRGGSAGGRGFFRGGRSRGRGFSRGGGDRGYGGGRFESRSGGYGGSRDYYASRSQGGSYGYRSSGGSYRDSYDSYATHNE
In words: SPR. To be noted: remark: other sources report otherwise.

As a reminder, the Kd is a measure of binding affinity in units of concentration.

In the case of RGFFRGG [M3, 7-aa peptide derived from CIRP], the Kd in experiment [1] was 35.2 µM.

On to LQVTDSGLYRCVIYHPP [LP17, 17 amino acid peptide taken from TREM-1], for which, in experiment [2], the Kd amounted to 48 µM.

For the molecule B1, the “fold increase in FRET units over the negative control CD11b” value in experiment [3] was around 7 fold.

B2: recombinant mouse TREM-1-Fc Chimera, Q9JKE2 21-202 (Fc fusion)
chain: AIVLEEERYDLVEGQTLTVKCPFNIMKYANSQKAWQRLPDGKEPLTLVVTQRPFTRPSEVHMGKFTLKHDPSEAMLQVQMTDLQVTDSGLYRCVIYHPPNDPVVLFHPVRLVVTKGSSDVFTPVIIPITRLTERPILITTKYSPSDTTTTRSLPKPTAVVSSPGLGVTIINGTDADSVSTSS
Consider B2, for which, in experiment [4], the equilibrium dissociation constant (Kd) was 0.117 µM.
